For series [1], the target named is Klenow fragment exo- (KF exo-) (UniProt P00582). Conditions: n=Ds (7-(2-thienyl)-imidazo[4,5-b]pyridine); dPa'TP insertion Vmax/KM; 10 mM MgCl2 pH 7.5 37C.
Series [2] shares this target. The following applies: n=Pa' (4-propynylpyrrole-2-carbaldehyde); dDsTP insertion Vmax/KM; 10 mM MgCl2 pH 7.5 37C.
The target is the same in series [3]. The following applies: n=Pa (pyrrole-2-carbaldehyde); dDsTP insertion; Vmax/KM as printed (KM 26 uM and Vmax 28 imply 1.1e6); 10 mM MgCl2 pH 7.5 37C.

Like-named read-outs stand apart in the source and are kept apart here.

Chain of Klenow fragment exo- (KF exo-) (P00582 324-928): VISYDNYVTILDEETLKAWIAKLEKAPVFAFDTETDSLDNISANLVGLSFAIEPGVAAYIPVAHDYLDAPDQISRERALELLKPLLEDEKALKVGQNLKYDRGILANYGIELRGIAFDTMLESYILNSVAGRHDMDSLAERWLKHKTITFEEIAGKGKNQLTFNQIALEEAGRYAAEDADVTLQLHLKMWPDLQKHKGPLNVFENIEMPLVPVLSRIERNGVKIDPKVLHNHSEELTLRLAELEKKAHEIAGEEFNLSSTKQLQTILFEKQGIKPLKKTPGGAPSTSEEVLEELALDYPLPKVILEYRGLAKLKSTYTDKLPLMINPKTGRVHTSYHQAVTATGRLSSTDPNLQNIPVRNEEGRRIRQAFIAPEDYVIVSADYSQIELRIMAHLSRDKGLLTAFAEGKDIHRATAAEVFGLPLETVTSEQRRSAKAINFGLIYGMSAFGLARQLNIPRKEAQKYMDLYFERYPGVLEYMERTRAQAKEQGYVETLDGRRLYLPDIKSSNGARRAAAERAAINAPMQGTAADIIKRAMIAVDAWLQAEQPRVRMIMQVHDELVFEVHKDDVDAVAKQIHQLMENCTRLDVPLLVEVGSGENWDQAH

Consider “AGCTCTNTCTTCCTCCCTATAGTGAGTCGTATTAT / ACTCACTATAGGGAGGAAGA [temp35Ds-1/primer]”, for which, in series [1], the activity worked out at 260000 %/min/M. As to “TCGAGANAGAAGCTCCCTATAGTGAGTCGTATTAT / ACTCACTATAGGGAGCTTCT [temp35Pa'-2/primer]”, the activity in series [2] amounted to 880000 %/min/M. As for “TCGAGANAGAAGCTCCCTATAGTGAGTCGTATTAT / ACTCACTATAGGGAGCTTCT [temp35Pa-2/primer]”, the activity in series [3] is 11000 %/min/M.

(Values after patent US20100036111.)
